Results on 1 substance are retold here after IntAct's records for PubMed 17537733.

This test addresses kdm1a_human KDM1A (UniProt O60341).

Take “Histone H3.1t (Homo sapiens) (from UniProt Q16695) K5M”: the “effect of a mutation on the interaction” value is given as “decreasing interaction”.
